Literature values, collected in article PMC4448168.

Molecular target: α7 nAChR (UniProt P36544)
Sequence of UniProt P36544 (P36544 23-502): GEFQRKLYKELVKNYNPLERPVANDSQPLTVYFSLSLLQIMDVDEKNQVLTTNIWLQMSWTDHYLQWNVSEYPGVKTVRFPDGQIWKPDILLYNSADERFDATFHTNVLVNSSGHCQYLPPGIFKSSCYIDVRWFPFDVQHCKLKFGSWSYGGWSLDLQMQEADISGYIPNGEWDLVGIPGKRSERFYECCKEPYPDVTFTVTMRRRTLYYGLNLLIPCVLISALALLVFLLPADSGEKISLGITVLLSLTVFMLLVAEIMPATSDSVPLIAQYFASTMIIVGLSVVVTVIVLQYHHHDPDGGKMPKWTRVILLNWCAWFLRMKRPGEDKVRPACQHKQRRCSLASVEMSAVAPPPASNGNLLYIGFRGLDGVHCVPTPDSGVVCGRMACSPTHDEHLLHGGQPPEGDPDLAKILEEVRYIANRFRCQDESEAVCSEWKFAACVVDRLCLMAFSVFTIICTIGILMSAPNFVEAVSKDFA

For α-elapitoxin-Aa2a (from UniProt P86522), the Ki is given as 214 µM.
